According to patent US20060002929A1 (published 2006):

B5: hOX40R-Fc (Fc fusion, human, UniProt P43489 29-214, looked up)
chain: LHCVGDTYPSNDRCCHECRPGNGMVSRCSRSQNTVCRPCGPGFYNDVVSSKPCKPCTWCNLRSGSERKQLCTATQDTVCRCRAGTQPLDSYKPGVDCAPCPPGHFSPGDNQACKPWTNCTLAGKHTLQPASNSSDAICEDRDPPATQPQETQGPPARPITVQPTEAWPRTSQGPSTRPVEVPGGRA
notes: Defined as 'the human IgG Fc domain fused to the human OX40 receptor'; also called hFc-OX40R; HFc-OX40R; not shown: Fc domain of human IgG
B6: Human Fc-OX40L (Fc fusion, UniProt P23510 51-183, looked up)
chain: QVSHRYPRIQSIKVQFTEYKKEKGFILTSQKEDEIMKVQNNSVIINCDGFYLISLKGYFSQEVNISLHYQKDEEPLFQLKKVRSVNSLMVASLTYKDKVYLNVTTDNTSLDDFHVNGGELILIHQNPGEFCVL
notes: Defined as 'the Fc domain of human IgG fused to human OX40L'; Made in 293T or COS cells; also called hFc-OX40L; HFc-OX40L; not shown: Fc domain of human IgG

Tests used:
[1] = target: B6; assay: cell-based or functional assay
[2] = target: B6; assay: BIAcore, immobilized hFc-OX40L
[3] = target: B6; assay: BIAcore solution equilibrium: 0.2 nM antibody pre-mixed with 20-0.005 nM hFc-OX40L, free antibody read on immobilized hFc-OX40L
Experimental: The binding equilibrium of four of the antibodies was assessed on a BIACore chip as described above in Example 1 with the following modifications. HFc-OX40L was immobilized to the sensor chip at a high density of 8,000 RU. Serial 2.5-fold dilutions of hFc-OX40L were prepared in sample buffer so that the final concentration of hFc-OX40L, once mixed with an anti-OX40L antibody, ranged between 20 nM to 0.005 nM. Monoclonal anti-OX40L antibody candidates were mixed with each hFc-OX40L dilution in a total of 400 μl so that the final concentration of monoclonal antibody was 0.2 nM. Samples were incubated at room temperature for at least five hours to allow samples to reach equilibrium. Samples were then injected over the immobilized hFc-OX40L surface for 30 minutes at 10 μl/min. After the sample injection, the samples were allowed to dissociate for 3 minutes, and then the surface was regenerated by injecting 8 mM glycine, pH 3.0, 1 M NaCl for 30 seconds. The binding signals obtained were proportional to the free antibody in solution at equilibrium for a given concentration of ligand. Plotting the binding signal versus ligand concentration, and using the scientific graphing software program GraphPad Prizm, the EC₅₀ values for each antibody at a given concentration in the presence of varying concentrations of hFc-OX40L were calculated.

[4] = target: B6; assay: BIAcore solution equilibrium at 0.2 and 0.6 nM binder, dual-curve one-site fit (KinExA software)
Experimental: (§1) Specifically, BIACore chips were prepared as described above in Example 1, with the following modifications. HFc-OX40L was immobilized to the sensor chip at a high density of 8,000 RU. […] Samples were incubated at room temperature for at least five hours to allow samples to reach equilibrium. Samples were then injected over the immobilized hFc-OX40L surface for 30 minutes at 10 μl/min. After the sample injection, the samples were allowed to dissociate for 3 minutes, and then the surface was regenerated by injecting 8 mM glycine, pH 3.0, 1 M NaCl for 30 seconds. The binding signals, measured in RU, obtained were proportional to the free antibody in solution at equilibrium for a given concentration of ligand. The dissociation equilibrium constant (KD) was obtained from nonlinear regression analysis of the competition curves using a dual-curve one-site homogeneous binding model (KinExA software v. 2.3, Sapidyne Instruments Inc., Boise Id.).

[5] = target: T1, 018-muOX40L (mouse, UniProt P43488); assay: Luminex bead assay: antigen loaded on biotin beads, antibody titrated, detection anti-huIgG-PE [panel Ab F]
T1 construct: also called mouse OX40L
T1 sequence (bead-bound control antigen, looked up): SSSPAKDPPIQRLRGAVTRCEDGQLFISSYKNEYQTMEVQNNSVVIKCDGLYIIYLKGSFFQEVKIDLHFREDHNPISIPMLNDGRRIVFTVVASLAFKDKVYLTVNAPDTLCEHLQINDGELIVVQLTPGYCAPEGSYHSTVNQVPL

[6] = target: B5; assay: BIAcore solution equilibrium at 0.2 and 0.6 nM binder, dual-curve one-site fit (KinExA software)
Experimental: as §1

[7] = target: T1, 018-muOX40L; assay: Luminex bead assay: antigen loaded on biotin beads, antibody titrated, detection anti-huIgG-PE [panel Ab C]

B1: Ab B (antibody, V domains shown)
VH: QVQLQESGPGLVKPSETLSLTCTVSGGSISTYYWNWIRQPAGKGLEWIGRIYISGSTNYNPSLKSRVTMSVDTSKNQFSLKLSSVTAADTAVYYCARDRVDIVATKGHYYYGMDVWGQGTTVTVSS
VL: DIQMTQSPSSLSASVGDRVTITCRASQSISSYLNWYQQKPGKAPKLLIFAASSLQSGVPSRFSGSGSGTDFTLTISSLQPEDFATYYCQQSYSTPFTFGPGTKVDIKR
notes: Human anti-OX40L monoclonal antibody
In the case of B1, the “IL-2 Inhibition (IC50 [nM])” value [1] is reported as 0.49 nM and the EC50 [2] is reported as 0.6 nM.

B2: Ab A (antibody, V domains shown)
VH: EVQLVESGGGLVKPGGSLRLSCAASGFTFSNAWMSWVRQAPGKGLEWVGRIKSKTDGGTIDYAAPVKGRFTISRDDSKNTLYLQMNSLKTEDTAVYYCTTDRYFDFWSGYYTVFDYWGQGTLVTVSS
VL: DIQMTQSPSSLSASVGDRVTITCRASQGISNHLVWYQQKVGKVPKLLIYAASTLQSGVPSRFSGSGSGTDFTLTISSLQPEDVATYYCQKFNSAPFTFGPGTKVDIKR
notes: Human anti-OX40L monoclonal antibody from transgenic mice
B2 was tested, and the “IL-2 Inhibition (IC50 [nM])” value [1] was 0.32 nM and the EC50 [2] was 1 nM.

B3: Ab E (antibody, V domains shown)
VH: EVQLVESGGGLVKPGGSLRLSCAASGFTFSNAWMSWVRQAPGKGLEWVGRIKRKTDGGTIDYAAPVKGRFTISRADSKNTLFLQMNSLITEDTAVYYCTISYYYDYSGYYYVDHWGQGTLVTVSS
VL: DIQMTQSPSSLSASVGDRVTITCRASQGISNHLVWYQQKPGKVPKLLIYAASTLQSGVPSRFSGSGSGTDFTLTISSLQPEDVATYYCQKYNSAPLTFGGGTKVEIKR
notes: as for B1
For B3, the “IL-2 Inhibition (IC50 [nM])” value [1] was 0.58 nM, the EC50 [2] was 0.69 nM and the EC50 [3] was 0.686 nM.

B4: Ab F (antibody, V domains shown)
VH: EVQLVESGGGLVKPGGSLRLSCAASGFTFSNAWMSWVRQAPGKGLEWVGRIKRKTDGGTIDYAAPVKGRFTISRADSKNTLFLQMNSLITEDTAVYYCTISYYYDYSGYYYVDHWGQGTLVTVSS
VL: DIQMTQSPSSLSASVGDRVTITCRASQGISNHLVWYQQKPGKVPKLLIYAASTLQSGVPSRFSGSGSGTDFTLTISSLQPEDVATYYCQKYNSAPLTFGGGTKVEIKR
notes: as for B1
In the case of B4, the Kd [4] is reported as 0.12 nM, the binding result [5] is reported as “no binding (tested: 100 nM)” and the EC50 [3] is reported as 0.402 nM.

In the case of B5, the “IL-2 Inhibition (IC50 [nM])” value [1] is reported as 5.2 nM and the EC50 [2] is reported as 1 nM.

B6 was tested, and the Kd [6] was 1 nM.

B7: Ab C (antibody, V domains shown)
VH: QVQLVESGGGVVQPGRSLRLSCAASGFTFSFYGMHWVRQAPGKGLEWVAVIWYDGSNKYYADSVKGRFTISRDNSKNTLYLQMNSLRAEDTAVYYCARGGYDYVWGSYRRNSDFDYWGQGTLVTVSS
VL: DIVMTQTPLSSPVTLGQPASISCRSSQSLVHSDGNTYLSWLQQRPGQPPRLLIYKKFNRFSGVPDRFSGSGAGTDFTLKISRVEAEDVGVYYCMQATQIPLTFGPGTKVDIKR
notes: as for B1
In the case of B7, the “IL-2 Inhibition (IC50 [nM])” value [1] is reported as 2 nM, the EC50 [2] is reported as 0.1 nM and the Kd [4] is reported as 0.033 nM. The binding result [7] was “no binding (tested: 100 nM)” and the EC50 [3] was 0.101 nM.
